Measured values: patent publication US20200199241A1 (Chugai, published 2020)
Positions count from the first letter of the chain named.

B1: IL6R-2B253/IL6R-L (antibody, human IgG1)
heavy: QVQLQESGPGLVKPSETLSLTCAVSGHSISHDHAWSWVRQPPGEGLEWIGFISYSGITNYNPSLQGRVTISRDNSKNTLYLQMNSLRAEDTAVYYCARSLARTTAMDYWGEGTLVTVSSASTKGPSVFPLAPSSKSTSGGTAALGCLVKDYFPEPVTVSWNSGALTSGVHTFPAVLQSSGLYSLSSVVTVPSSSLGTQTYICNVNHKPSNTKVDKKVEPKSCDKTHTCPPCPAPDLLGGDSVFLFPPKPKDTLMISRTPEVTCVVVDVSHEDPEVKFNWYVDGVEVHNAKTKPREEQYNSTYRVVSVLTVLHQDWLNGKEYKCKMSNKALPAPIEKTISKAKGQPREPQVYTLPPSRDELTKNQVSLTCLVKGFYPSDIAVEWESNGQPENNYKTTPPVLDSDGSFFLYSKLTVDKSRWQQGNVFSCSVMHEALHNHYTQESLSLSP
light: DIQMTQSPSSLSASVGDRVTITCRASQDISSYLNWYQQKPGKAPKLLIYYTSRLHSGVPSRFSGSGSGTDFTFTISSLQPEDIATYYCQQGNTLPYTFGQGTKVEIK
B2: IL6R-BP147/IL6R-L (antibody, human IgG1)
heavy: B1 heavy with D235E, L236Y, G239D, M325V, K328A, A332K
light: B1 light
B3: IL6R-BP146/IL6R-L (antibody, human IgG1)
heavy: B1 heavy with D235E, L236Y, G239D, M325V, K328A
light: B1 light
B4: IL6R-BP084/IL6R-L (antibody, human IgG1)
heavy: B1 heavy with D235E, A332K
light: B1 light
B5: IL6R-BP088/IL6R-L (antibody, human IgG1)
heavy: B1 heavy with D235E, G239D, M325V, K328A, A332K
light: B1 light
B6: IL6R-BP133/IL6R-L (antibody, human IgG1)
heavy: B1 heavy with L236Y, M325V, A332K
light: B1 light
B7: IL6R-BP085/IL6R-L (antibody, human IgG1)
heavy: B1 heavy with D235E, G239D, M325V, A332K
light: B1 light
B8: IL6R-BP083/IL6R-L (antibody, human IgG1)
heavy: B1 heavy with D235E, Y298D, M325V, A332K
light: B1 light
B9: IL6R-BP182/IL6R-L (antibody, human IgG1)
heavy: B1 heavy with P273G, Y298D, M325V, A332K
light: B1 light
B10: IL6R-2B261/IL6R-L (antibody, human IgG1)
heavy: B1 heavy with Y298D, M325V
light: B1 light

biological target: T1, FcγRIIa type H (human, UniProt P12318 36-217); assay: SPR (Biacore), antibody captured, FcγR analyte
T1 construct: SPR analyte; also called FcγRIIaH
T1 sequence: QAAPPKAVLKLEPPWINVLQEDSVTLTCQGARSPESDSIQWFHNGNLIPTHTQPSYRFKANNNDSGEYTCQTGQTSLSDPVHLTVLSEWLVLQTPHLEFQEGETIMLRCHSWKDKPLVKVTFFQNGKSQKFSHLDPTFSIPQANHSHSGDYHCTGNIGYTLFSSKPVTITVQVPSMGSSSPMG
Source text: (§1) Furthermore, KD(IIaR)/KD(IIb) and KD(IIaH)/KD(IIb) in the table respectively represent the value obtained by dividing the KD value of each variant for FcγRIIaR by the KD value of each variant for FcγRIIb, and the value obtained by dividing the KD value of each variant for FcγRIIaH by the KD value of each variant for FcγRIIb. KD(IIb) of the parent polypeptide/KD(IIb) of the altered polypeptide refers to the value obtained by dividing the KD value of the parent polypeptide for FcγRIIb by the KD value of each variant for FcγRIIb.

In order of falling Kd:
1. B8  44 µM
2. B10  33 µM
3. B9  28 µM
4. B6  26 µM
5. B4  24 µM
6. B7  24 µM
7. B5  23 µM
8. B3  18 µM
9. B1  13 µM
10. B2  5.1 µM

biological target: T2, FcγRIIIa type V (human, UniProt P08637 17-208, limits assumed); assay: SPR (Biacore), antibody captured, FcγR analyte
T2 construct: SPR analyte; allotype V158 was used here; also called FcγRIIIaV; FcγRIIIa(V)
T2 sequence (P08637 other isoform, or with tags, fused parts or gaps limits assumed): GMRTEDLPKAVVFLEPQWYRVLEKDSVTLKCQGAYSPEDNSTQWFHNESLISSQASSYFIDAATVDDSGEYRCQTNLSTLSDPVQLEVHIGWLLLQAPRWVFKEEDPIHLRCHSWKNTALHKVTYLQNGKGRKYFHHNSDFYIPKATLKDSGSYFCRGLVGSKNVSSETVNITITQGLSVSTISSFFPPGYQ
Source text: as §1

In order of rising Kd:
1. B2  33 µM
2. B1  50 µM
3. B5  57 µM
4. B9  58 µM
5. B6  62 µM
6. B8  66 µM
7. B4  67 µM
8. B7  68 µM
9. B10  73 µM

biological target: T3, FcγRIIb (human, UniProt P31994 43-217, limits assumed); assay: SPR (Biacore), antibody captured, FcγR analyte
T3 construct: SPR analyte; also called FcγIIB; CD32
T3 sequence: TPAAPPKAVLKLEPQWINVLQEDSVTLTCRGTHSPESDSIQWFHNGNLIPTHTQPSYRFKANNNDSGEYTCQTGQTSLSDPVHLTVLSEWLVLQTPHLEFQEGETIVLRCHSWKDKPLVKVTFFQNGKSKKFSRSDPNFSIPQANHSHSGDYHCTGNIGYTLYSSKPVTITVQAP
Source text: as §1

In order of falling Kd:
1. B10  1000 nM
2. B8  790 nM
3. B6  560 nM
4. B4  500 nM
5. B7  320 nM
6. B3  230 nM
7. B5  220 nM
8. B2  66 nM

Biological target: T4, FcγRIIa type R (human, UniProt P12318 36-217)
T4 construct: SPR analyte; also called FcγRIIaR; FcγRIIa(R)
T4 chain: T1 sequence with H133R
Assay: SPR (Biacore), antibody captured, FcγR analyte
Source text: as §1

In order of rising Kd:
1. B2  890 nM
2. B3  2100 nM
3. B9  2600 nM
4. B5  2900 nM
5. B7  4200 nM
6. B1  5000 nM
7. B4  7200 nM

biological target: T5, FcγRIa (human, UniProt P12314 16-292, limits assumed); assay: SPR (Biacore), antibody captured, FcγR analyte
T5 construct: SPR analyte; also called CD64
T5 sequence (P12314 16-292 limits assumed): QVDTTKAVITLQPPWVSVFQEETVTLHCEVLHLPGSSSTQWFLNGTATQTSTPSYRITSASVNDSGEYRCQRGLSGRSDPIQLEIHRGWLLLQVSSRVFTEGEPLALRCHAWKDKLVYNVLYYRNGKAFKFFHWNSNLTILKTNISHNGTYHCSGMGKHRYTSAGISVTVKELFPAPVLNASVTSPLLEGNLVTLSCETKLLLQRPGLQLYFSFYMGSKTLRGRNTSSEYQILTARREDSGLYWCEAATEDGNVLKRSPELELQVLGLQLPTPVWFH
Source text: as §1

In order of rising Kd:
1. B1  1.4 nM
2. B4  7 nM
3. B10  9 nM
4. B9  10 nM
5. B8  38 nM
6. B3  74 nM
7. B6  130 nM
8. B2  140 nM
9. B7  290 nM
10. B5  390 nM

biological target: T3, FcγRIIb; assay: ratio of SPR KDs; reference IL6R-B3/IL6R-L

In order of falling “KD(IIb) of the parent polypeptide/KD(IIb) of altered polypeptide” value:
1. B5  14.3
2. B3  13.7
3. B7  9.6
4. B1  7.2
5. B4  6.1
6. B6  5.6
7. B8  3.9
8. B10  3
